Experimental data: patent US20100197581A1 (TIBOTEC PHARMACEUTICALS, published 2010)

Biological target: sCD4 induced HIV-1 IIIB Env complexes (gp120/gp41 native spikes) on HUTIIIB cells (clone 199-76) (HIV-1 IIIB; human, UniProt P04578 33-856; P01730 26-396)

B1: F105 (antibody, V domains shown)
VH: QVQLQESGPGLVKPSETLSLTCTVSGGSISSHYWSWIRQSPGKGLQWIGYIYYSGSTNYSPSLKSRVTISVETSKNQFSLKLTSMTAADTAVYYCARGPVPAVFYGDYRLDPWGQGTLVTVSS
VL: EIVLTQSPGTLSLSAGERATLSCRASQSVSSRYLAWYQQKPGQAPRLLIYGASSRATGIPDRFSGSGSGTDFTLTISRVEPEDFAVYYCQQYDNSVCTFGQGTKLEIK
EC50: > 100 nM
